Laboratory results reported in patent publication US9193963B2, “Mutant endoglucanase” (Toray Industries, Inc., priority 2011, dated 2015).
Changes are numbered by the printed parent chain. Names may count otherwise.

B1: EGSh Wild-type: Staphylothermus hellenicus-derived endoglucanase, SEQ ID NO: 19, parent endoglucanase (protein)
chain: MPARTRIACAVILLLVFLALYIAWPVEGSFLKQQPYNELRGRVLGSNIQIPKDHIPYYHIVNGTIYMDDKLIHLFGVSWFGFELPDHIVYGLWARNWKDILKDIKEMGFNAIRLPFCHESITPGTKPVPGRISYSLNPDLRNLTSLEIMEKIISYANELNIFVLLDYHRIGCRYIEPLWYTDNFSEEQYIKDWVFLAQKFGKYPNVIGADIKNEPHDSASWGTGDNKTDFRLFAERVGQAILQVAPHWLIFIEGVQYTHVPEIDGRNPYSCFWGENLMGVKDYPVRLPKDKIVYSPHVYGPSVYNMPYFNDPEFPRNLPKIWELHFGYLKELGYAIVIGEWGGRYVGKDKVWQDAFADWLIQKGIYDFFYWCLNPESGDTGGIFKSDWRTVNQDKLNLIHRIINAASQAQASTISGKHDWKTYLVLIAPTLLPVLILVILVLLIIKRRYTKKQ
modifications: Staphylothermus hellenicus EGSh
B2: EGSh Mutant: mutant EGSh, SEQ ID NO: 20; residue corresponding to 273rd tryptophan substituted with alanine (protein)
chain: B1 chain with W273A
modifications: Staphylothermus hellenicus EGSh W273A
notes: residue corresponding to 273rd tryptophan substituted with alanine
B3: EGPh(W273Y): comparative mutant of EGPh, the 273rd tryptophan substituted with tyrosine, SEQ ID NO: 49 (protein)
chain: MEGNTILKIVLICTILAGLFGQVVPVYAENTTYQTPTGIYYEVRGDTIYMINVTSGEETPIHLFGVNWFGFETPNHVVHGLWKRNWEDMLLQIKSLGFNAIRLPFCTESVKPGTQPIGIDYSKNPDLRGLDSLQIMEKIIKKAGDLGIFVLLDYHRIGCTHIEPLWYTEDFSEEDFINTWIEVAKRFGKYWNVIGADLKNEPHSVTSPPAAYTDGTGATWGMGNPATDWNLAAERIGKAILKVAPHWLIFVEGTQFTNPKTDSSYKWGYNAWYGGNLMAVKDYPVNLPRNKLVYSPHVYGPDVYNQPYFGPAKGFPDNLPDIWYHHFGYVKLELGYSVVIGEFGGKYGHGGDPRDVIWQNKLVDWMIENKFCDFFYWSWNPDSGDTGGILQDDWTTIWEDKYNNLKRLMDSCSKSSSSTQSVIRSTTPTKSNTSKKICGPAILIILAVFSLLLRRAPR
modifications: Pyrococcus horikoshii EGPh W273Y
B4: EGPh(W273F): comparative mutant of EGPh, tryptophan substituted with phenyl alanine, SEQ ID NO: 50 (protein)
chain: B3 chain with Y273F
modifications: Pyrococcus horikoshii EGPh W273F

Tests used:
[1] = Saccharification of lignocellulose 1 with Celluclast and endoglucanase; assay type: biochemical, Rice straw; settings: 5 wt % Lignocellulose 1, pH 5.2, 50° C., 24 hours; 1.0 mg/mL cellulase + 0.1 mg/mL endoglucanase
Protocol: (§1) Rice straw was used as cellulose. The cellulose was added to a small reactor (Taiatsu Techno Corporation, TVS-N2 (30 ml)), and then cooled with liquid nitrogen. An ammonia gas was fed to the reactor, thereby completely immersing the sample in the liquid ammonia. The reactor was closed using its lid, and then left to stand at room temperature for 15 minutes. Subsequently, treatment was performed for 1 hour in an oil bath at 150° C. After treatment, the reactor was removed from the oil bath, an ammonia gas leak was immediately performed within a draft chamber. The reactor was vacuumed using a vacuum pump to 10 Pa for drying. The resultant was used as lignocellulose 1 in the following examples.
(§2) The changes in the amount of glucose generated when the enzyme composition had been caused to act on lignocellulose substrates were compared. The substrates were prepared by suspending 5 wt % lignocelluloses (1 to 3) (prepared in Reference Example 3) in 50 mM acetate buffer (pH5.2). Reactions were performed at 50° C. for 24 hours. The concentrations of the generated glucose were measured after adequate sampling. As a filamentous bacterium-derived cellulase mixture, commercially available Trichoderma reesei-derived cellulase (Celluclast, Sigma) was used. As endoglucanases, the mutant endoglucanases prepared in Example 2 and the wild-type endoglucanases prepared in Reference Example 1 were separately used. The following quantities of enzymes were added: 1.0 mg/mL cellulase, and 0.1 mg/mL endoglucanase (in an amount one tenth that of the cellulase).

[2] = Inhibition experiment with vanillin: degradation of phosphoric acid swollen cellulose; assay type: biochemical; settings: enzyme 0.5 μM, 1 hour, 50° C., parent at 0 mM = 100%
[3] = Saccharification of lignocellulose 2 with Celluclast and endoglucanase; assay type: biochemical, Rice straw; settings: 5 wt % Lignocellulose 2, pH 5.2, 50° C., 24 hours; 1.0 mg/mL cellulase + 0.1 mg/mL endoglucanase
Protocol: (§3) Rice straw was used as cellulose. Cellulose was immersed in a 1% aqueous sulfuric acid solution, and then autoclaved for 30 minutes at 150° C. (Nitto Koatsu Co. Ltd.). After treatment, the resultant was subjected to solid-liquid separation into an aqueous sulfuric acid solution (hereinafter, referred to as “dilute-sulfuric-acid-treated solution”) and cellulose treated with sulfuric acid. Next, the cellulose treated with sulfuric acid was mixed and agitated with the dilute-sulfuric-acid-treated solution so that the solid content concentration was 10 wt %. Then the mixture was adjusted to around pH 5 using sodium hydroxide. The resultant was used as lignocellulose 2 for the following examples.
as §2

[4] = Saccharification of lignocellulose 2 with Trichoderma reesei culture solution and endoglucanase; assay type: biochemical, Rice straw; settings: Lignocellulose 2, 24 hours; cellulase 1.0 mg/mL + endoglucanase 0.1 mg/mL + β-glucosidase (Novozyme 188) 0.01 mg/mL
Protocol: as §3, §2
(§4) Lignocelluloses (1-3) prepared in Reference Example 3 were used as substrates. The Trichoderma reesei culture solution prepared in Reference Example 4 was used as a filamentous bacterium-derived cellulase mixture. Lignocelluloses (1-3) were hydrolyzed in a manner similar to that in Example 7, except for the quantities of the enzymes added: cellulase (1.0 mg/mL); endoglucanase (0.1 mg/mL (in an amount one tenth that of the cellulase); and β-glucosidase (Novozyme 188) (0.01 mg/mL (in an amount one hundredth that of the cellulase).

[5] = Saccharification of lignocellulose 3 with Celluclast and endoglucanase; assay type: biochemical, Rice straw; settings: 5 wt % Lignocellulose 3, pH 5.2, 50° C., 24 hours; 1.0 mg/mL cellulase + 0.1 mg/mL endoglucanase
Protocol: (§5) Rice straw was used as cellulose. The cellulose was immersed in water, and then autoclaved with agitation at 180° C. for 20 minutes (Nitto Koatsu Co. Ltd.). Pressure at this time was 10 MPa. After treatment, a solution component (hereinafter, referred to as “hydrothermally treated solution”) and the treated biomass component were subjected to solid-liquid separation by centrifugation (3000 G). The thus treated biomass component was used as lignocellulose 3 for the following examples.
as §2

[6] = Inhibition experiment with ferulic acid: degradation of phosphoric acid swollen cellulose; assay type: biochemical; settings: enzyme 0.5 μM, 1 hour, 50° C., parent at 0 mM = 100%
[7] = Saccharification of lignocellulose 1 with Trichoderma reesei culture solution and endoglucanase; assay type: biochemical, Rice straw; settings: Lignocellulose 1, 24 hours; cellulase 1.0 mg/mL + endoglucanase 0.1 mg/mL + β-glucosidase (Novozyme 188) 0.01 mg/mL
Protocol: as §1, §2, §4

[8] = Saccharification of lignocellulose 3 with Trichoderma reesei culture solution and endoglucanase; assay type: biochemical, Rice straw; settings: Lignocellulose 3, 24 hours; cellulase 1.0 mg/mL + endoglucanase 0.1 mg/mL + β-glucosidase (Novozyme 188) 0.01 mg/mL
Protocol: as §5, §2, §4

[9] = Activity to degrade phosphoric acid swollen cellulose; assay type: biochemical
Protocol: The term “identity” refers to the percentage of amino acid residues identical to and amino acid residues analogous to the other amino acid residues in all the amino acid residues overlapped when an optimum alignment is performed by introducing gaps or no gaps into two amino acid sequences and then aligning the two amino acid sequences. Such an identity can be found using a method known by persons skilled in the art, sequence analysis software, and the like (a known algorithm such as BLAST or FASTA). The term “endoglucanase activity” is as defined above and can be determined by adding an enzyme solution to a substrate solution of phosphoric acid swollen cellulose that has been dissolved in 50 mM acetic acid-sodium acetate buffer (pH 5.2) or the like, performing 1 hour of reaction at 30° C. to 85° C., stopping the reaction by changing the pH if necessary, and then determining the concentration of glucose in the reaction solution using a glucose determination kit, for example.
The mutants obtained in Comparative Example 1 were compared in terms of activity by a technique similar to that in Example 3. The concentration (g/L) of glucose generated by each parent endoglucanase under the above reaction conditions was determined to be 100%.

[10] = 1% phosphoric acid swollen cellulose, pH 5.2, enzyme 0.5 μM, 1 hour, 50° C., glucose generated by each parent endoglucanase = 100%
[11] = Comparative Example 2, technique similar to Example 3, parent endoglucanase = 100%

| Molecule | Relative activity to degrade phosphoric acid swollen cellulose ([2]; vanillin 0 mM) [%] | Relative activity to degrade phosphoric acid swollen cellulose ([2]; vanillin 5 mM) [%] | Relative activity to degrade phosphoric acid swollen cellulose ([2]; vanillin 10 mM) [%] | Relative activity to degrade phosphoric acid swollen cellulose ([2]; vanillin 15 mM) [%] | Relative activity to degrade phosphoric acid swollen cellulose ([6]; ferulic acid 0 mM) [%] | Relative activity to degrade phosphoric acid swollen cellulose ([6]; ferulic acid 5 mM) [%] | Relative activity to degrade phosphoric acid swollen cellulose ([6]; ferulic acid 10 mM) [%] | Relative activity to degrade phosphoric acid swollen cellulose ([6]; ferulic acid 15 mM) [%] | Relative activity [9, 10] [%] | Relative activity [9, 11] [%] | also measured |
| --- | --- | --- | --- | --- | --- | --- | --- | --- | --- | --- | --- |
| B1 | 100 | 40 | 35 | 30 | 100 | 65 | 55 | 50 | 100 | – | Concentration of glucose generated, Celluclast + Wild-type [1]: 12 g/L; Concentration of glucose generated, Celluclast + Wild-type [3]: 11 g/L; Concentration of glucose generated, Culture solution + Wild-type [4]: 8 g/L; Concentration of glucose generated, Celluclast + Wild-type [5]: 12 g/L; Concentration of glucose generated, Culture solution + Wild-type [7]: 9 g/L; Concentration of glucose generated, Culture solution + Wild-type [8]: 9 g/L |
| B2 | 100 | 90 | 85 | 80 | 100 | 95 | 85 | 80 | 100 | – | Concentration of glucose generated, Celluclast + Mutant [1]: 14 g/L; Concentration of glucose generated, Celluclast + Mutant [3]: 15 g/L; Concentration of glucose generated, Culture solution + Mutant [4]: 12 g/L; Concentration of glucose generated, Celluclast + Mutant [5]: 15 g/L; Concentration of glucose generated, Culture solution + Mutant [7]: 11 g/L; Concentration of glucose generated, Culture solution + Mutant [8]: 12 g/L |
| B3 | – | – | – | – | – | – | – | – | – | 100 | – |
| B4 | – | – | – | – | – | – | – | – | – | 100 | – |
